Article PMC6504561

Columns and labels:
[1] = biological target: DYNLT1 (Mus musculus) (UniProt P51807); test: NMR; conditions: cited from earlier work
[2] = biological target: FITC-labelled ARHGEF2 peptide 876-891 phosphorylated on Ser885 (not stated (human or mouse cDNA cloned)); test: MST
[3] = biological target: FITC-labelled ARHGEF2 peptide 142-157 phosphorylated on Ser151 (not stated (human or mouse cDNA cloned)); test: MST

Sequence of ARHGEF2 peptide 133-161 (Q60875 133-161): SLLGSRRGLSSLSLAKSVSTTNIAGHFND
Sequence of DYNLT1 (Mus musculus) (P51807 whole entry): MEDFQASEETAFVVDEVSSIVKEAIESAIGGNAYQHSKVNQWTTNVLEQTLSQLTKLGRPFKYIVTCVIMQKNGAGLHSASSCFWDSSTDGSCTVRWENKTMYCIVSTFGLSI

Row | Kd [2] [µM] | Kd [3] [µM] | Substance | Kd [1] [µM]
1 | – | – | ARHGEF2 peptide 133-161 (from UniProt Q60875) | 80
2 | 2.3 | 11.6 | GST-14-3-3 (from UniProt P63101 1-245) (natural protein) | –
